The target of the assay is BG505-10MUT (HIV-1 (isolate BG505)). The assay can be described thus: SPR.

These results are taken from article PMC5019122.

B1: MutHGLL121 (fully mature PGT121 IgH with predicted germline IgL) (antibody, V domains shown)
VH: QMQLQESGPGLVKPSETLSLTCSVSGASISDSYWSWIRRSPGKGLEWIGYVHKSGDTNYSPSLKSRVNLSLDTSKNQVSLSLVAATAADSGKYYCARTLHGRRIYGIVAFNEWFTYFYMDVWGNGTQVTVSS
VL: SYVLTQPPSVSVAPGQTARITCGGNNIGSKSVHWYQQKPGQAPVLVVYDDSDRPSGIPERFSGSNSGNTATLTISRVEAGDEADYYCQVWDSSSDHPWVFGGGTKLTVL
B1: the Kd (in general, the concentration at which binding is half-saturated) came out at 47 µM.
